Tests used:
[1] = molecular target: T1, cynomolgus monkey FcγRIIa3 extracellular domain with C-terminal His-tag (cynomolgus monkey); assay: SPR; KD of SG1 / KD of variant
T1 construct: also called cyno FcγRIIa3; FcgRIIa3
T1 chain: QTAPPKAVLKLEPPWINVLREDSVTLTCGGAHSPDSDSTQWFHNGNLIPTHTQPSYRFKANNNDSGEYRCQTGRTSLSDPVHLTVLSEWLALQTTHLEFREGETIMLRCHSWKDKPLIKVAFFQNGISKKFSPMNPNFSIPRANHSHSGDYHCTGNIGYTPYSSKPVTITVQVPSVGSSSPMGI

[2] = molecular target: T2, cynomolgus monkey FcγRIIb extracellular domain with C-terminal His-tag (cynomolgus monkey); assay: SPR; KD of SG1 / KD of variant
T2 construct: also called cyno FcγRIIb; cynoFcγRIIb
T2 chain: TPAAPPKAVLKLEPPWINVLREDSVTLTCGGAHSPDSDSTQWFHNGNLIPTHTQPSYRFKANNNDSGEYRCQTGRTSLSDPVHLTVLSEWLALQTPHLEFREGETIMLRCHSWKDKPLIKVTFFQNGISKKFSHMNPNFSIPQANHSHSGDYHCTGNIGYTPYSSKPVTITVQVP

[3] = molecular target: T3, cynomolgus monkey FcγRIIIaS extracellular domain with C-terminal His-tag (cynomolgus monkey, UniProt Q8SPW2 21-206 at identity 1.00)); assay: SPR; KD of SG1 / KD of variant
T3 construct: also called cyno FcγRIIIaS; FcgRIIIaS
T3 chain: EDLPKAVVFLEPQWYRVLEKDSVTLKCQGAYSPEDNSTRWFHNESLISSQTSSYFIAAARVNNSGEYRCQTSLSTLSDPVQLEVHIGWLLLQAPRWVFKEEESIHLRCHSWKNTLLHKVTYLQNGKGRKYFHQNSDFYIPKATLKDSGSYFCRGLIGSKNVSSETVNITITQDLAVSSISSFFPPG

[4] = molecular target: T4, human FcγRIIaR extracellular domain with C-terminal His-tag (human, UniProt P12318 34-217); assay: SPR; KD of SG1 / KD of variant
T4 construct: also called human FcγRIIa (type R); FcgRIIaR
T4 chain: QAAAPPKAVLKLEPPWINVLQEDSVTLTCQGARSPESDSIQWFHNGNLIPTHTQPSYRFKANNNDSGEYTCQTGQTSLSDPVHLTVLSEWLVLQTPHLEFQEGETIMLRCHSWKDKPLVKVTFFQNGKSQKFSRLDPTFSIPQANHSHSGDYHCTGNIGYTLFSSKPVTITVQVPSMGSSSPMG

[5] = molecular target: T5, human FcγRIIaR extracellular domain with C-terminal His-tag (human, UniProt P12318 34-217); assay: SPR (Biacore), KD of SG1 divided by KD of variant
T5 construct: also called human FcgRIIaR; FcγRIIa (type R)
T5 chain: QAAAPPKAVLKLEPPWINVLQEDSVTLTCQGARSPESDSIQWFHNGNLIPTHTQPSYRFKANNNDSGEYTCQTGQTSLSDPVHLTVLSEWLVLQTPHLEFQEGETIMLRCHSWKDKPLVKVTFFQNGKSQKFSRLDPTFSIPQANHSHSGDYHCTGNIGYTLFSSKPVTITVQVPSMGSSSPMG
Description: The kinetic analysis of interactions between these antibodies and FcγR was carried out using BIACORE® T200 or BIACORE® 4000 (GE Healthcare). HBS-EP+ (GE Healthcare) was used as the running buffer, and the measurement temperature was set to 25° C. […] After the measurement, the antibody captured on the chip was washed off by allowing reaction with 10 mM glycine-HCl, pH1.5 and 25 mM NaOH so that the chip was regenerated and used repeatedly. The sensorgrams obtained as measurement results were analyzed by the 1:1 Langmuir binding model using the BIACORE® Evaluation Software to calculate the binding rate constant ka (L/mol/s) and dissociation rate constant kd (1/s), and the dissociation constant KD (mol/L) was calculated from these values. […] Regarding such interactions, KD values were calculated using the following 1:1 binding model described in BIACORE® T100 Software Handbook BR1006-48 Edition AE.

B1: M103205H795-MY316 (heavy chain) with M103202L889-SK1 (light chain) (antibody, human IgG1, kappa, name in EU numbering)
heavy: QVTLKESGPVLVKPTETLTLTCTVSGIDLSHDDISWVRQAPGKGLEWVGIISYAGSTYYASWAKGRLTISKDTSKNQVVLTMTNMDPVDTATYYCARGVPAYSHGGDLWGQGTLVTVSSASTKGPSVFPLAPSSKSTSGGTAALGCLVKDYFPEPVTVSWNSGALTSGVHTFPAVLQSSGLYSLSSVVTVPSSSLGTQTYICNVNHKPSNTKVDKKVEPKSCDKTHTCPPCPAPELLLGPSVFLFPPKPKDTLMISRTPEVTCVVVDVSEEDPEVKFNWYVDGVEVHNAKTKPREELYNSTYRVVSVLTVLHQDWLNGKEYKCKVSNKALPKPIEKTISKAKGQPREPQVYTLPPSREEMTKNQVSLTCLVKGFYPSDIAVEWESNGQPENNYKTTPKVLDSDGSFFLYSKLTVDKSRWQQGNVFSCSVMHEALHNHYTQKSLSLSP
light: DIVMTQSPATLSLSPGERATLSCTSSQSVYHANWLSWFQQKPGQPPKLLIYWASTLAYGVPSRFSGSGSGTDFTLTISSLQPEDAATYYCAGGYGGGRYAFGQGTKVEIKRTVAAPSVFIFPPSDEQLKSGTASVVCLLNNFYPREAKVQWKVDNALQSGNSQESVTEQDSKDSTYSLSSTLTLSKADYEKHKVYACEVTHQGLSSPVTKSFNRGEC
notes: Substitutions introduced into M103205H795-SG1; positions in EU numbering
- KD fold (SG1 = 1) [1]: 0.8 fold
- KD fold (SG1 = 1) [2]: 0.9 fold
- KD fold (SG1 = 1) [3]: 0.15 fold
- KD fold (SG1 = 1) [4]: 1 fold

B2: M103205H795-MY276 (heavy chain) with M103202L889-SK1 (light chain) (antibody, human IgG1, kappa, name in EU numbering)
heavy: QVTLKESGPVLVKPTETLTLTCTVSGIDLSHDDISWVRQAPGKGLEWVGIISYAGSTYYASWAKGRLTISKDTSKNQVVLTMTNMDPVDTATYYCARGVPAYSHGGDLWGQGTLVTVSSASTKGPSVFPLAPSSKSTSGGTAALGCLVKDYFPEPVTVSWNSGALTSGVHTFPAVLQSSGLYSLSSVVTVPSSSLGTQTYICNVNHKPSNTKVDKKVEPKSCDKTHTCPPCPAPELLIGPSVFLFPPKPKDTLMISRTPEVTCVVVDVSDEDPEVKFNWYVDGVEVHNAKTKPREEQYNSTYRVVSVLTVLHQDWLNGKEYKCKVSNKALPKPIEKTISKAKGQPREPQVYTLPPSREEMTKNQVSLTCLVKGFYPSDIAVEWESNGQPENNYKTTPKVLDSDGSFFLYSKLTVDKSRWQQGNVFSCSVMHEALHNHYTQKSLSLSP
light: DIVMTQSPATLSLSPGERATLSCTSSQSVYHANWLSWFQQKPGQPPKLLIYWASTLAYGVPSRFSGSGSGTDFTLTISSLQPEDAATYYCAGGYGGGRYAFGQGTKVEIKRTVAAPSVFIFPPSDEQLKSGTASVVCLLNNFYPREAKVQWKVDNALQSGNSQESVTEQDSKDSTYSLSSTLTLSKADYEKHKVYACEVTHQGLSSPVTKSFNRGEC
notes: as for B1
- KD fold (SG1 = 1) [2]: 5.6 fold
- KD fold (SG1 = 1) [3]: 0.3 fold

B3: M103205H795-MY525 / M103202L889-SK1 (antibody, human IgG1, kappa, name in EU numbering)
heavy: QVTLKESGPVLVKPTETLTLTCTVSGIDLSHDDISWVRQAPGKGLEWVGIISYAGSTYYASWAKGRLTISKDTSKNQVVLTMTNMDPVDTATYYCARGVPAYSHGGDLWGQGTLVTVSSASTKGPSVFPLAPSSKSTSGGTAALGCLVKDYFPEPVTVSWNSGALTSGVHTFPAVLQSSGLYSLSSVVTVPSSSLGTQTYICNVNHKPSNTKVDKKVEPKSCDKTHTCPPCPTPELLTGPVVFLFPPKPKDTLMISRTPEVTCVVVDVSDEDPEVKFNWYVDGVEVHNAKTKPREEQYNSTYRVVSVLTVLHQDWLNGKEYKCKVSNKALPKPIEKTISKAKGQPREPQVYTLPPSREEMTKNQVSLTCLVKGFYPSDIAVEWESNGQPENNYKTTPPVLDSDGSFFLYSKLTVDKSRWQQGNVFSCSVMHEALHNHYTQKSLSLSP
light: DIVMTQSPATLSLSPGERATLSCTSSQSVYHANWLSWFQQKPGQPPKLLIYWASTLAYGVPSRFSGSGSGTDFTLTISSLQPEDAATYYCAGGYGGGRYAFGQGTKVEIKRTVAAPSVFIFPPSDEQLKSGTASVVCLLNNFYPREAKVQWKVDNALQSGNSQESVTEQDSKDSTYSLSSTLTLSKADYEKHKVYACEVTHQGLSSPVTKSFNRGEC
- KD fold (SG1 = 1) [5]: 6.9 fold

— patent US20250076311A1 (Chugai, published 2025)
